{
  "source": "paper PMC11721787",
  "about": "(Science translational medicine, 2023)",
  "key": {"[1]": {"molecular_target": "PUUV Gn/Gc on virus-like particles (VLPs) (Puumala orthohantavirus, strain of the …, UniProt A0A0B4U5I0)", "test": "ELISA"}, "[2]": {"molecular_target": "PUUV Gc ectodomain (Puumala virus, UniProt P27312)", "sequence (P27312 659-1093)": "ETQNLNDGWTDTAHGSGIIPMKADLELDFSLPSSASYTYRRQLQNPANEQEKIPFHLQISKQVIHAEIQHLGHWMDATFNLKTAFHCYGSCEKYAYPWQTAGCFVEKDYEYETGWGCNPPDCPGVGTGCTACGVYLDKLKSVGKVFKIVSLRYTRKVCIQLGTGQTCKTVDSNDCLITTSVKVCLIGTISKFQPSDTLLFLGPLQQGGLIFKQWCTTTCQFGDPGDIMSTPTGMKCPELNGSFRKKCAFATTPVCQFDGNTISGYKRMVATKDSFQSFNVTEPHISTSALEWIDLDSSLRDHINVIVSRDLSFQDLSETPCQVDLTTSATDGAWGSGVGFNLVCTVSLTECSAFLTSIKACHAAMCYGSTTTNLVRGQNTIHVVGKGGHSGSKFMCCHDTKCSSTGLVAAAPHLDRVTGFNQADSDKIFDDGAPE", "test": "crystal structure"}, "[3]": {"molecular_target": "PUUV Gn^H (head of Gn) (Puumala virus, UniProt P27312)", "sequence (P27312 20-381)": "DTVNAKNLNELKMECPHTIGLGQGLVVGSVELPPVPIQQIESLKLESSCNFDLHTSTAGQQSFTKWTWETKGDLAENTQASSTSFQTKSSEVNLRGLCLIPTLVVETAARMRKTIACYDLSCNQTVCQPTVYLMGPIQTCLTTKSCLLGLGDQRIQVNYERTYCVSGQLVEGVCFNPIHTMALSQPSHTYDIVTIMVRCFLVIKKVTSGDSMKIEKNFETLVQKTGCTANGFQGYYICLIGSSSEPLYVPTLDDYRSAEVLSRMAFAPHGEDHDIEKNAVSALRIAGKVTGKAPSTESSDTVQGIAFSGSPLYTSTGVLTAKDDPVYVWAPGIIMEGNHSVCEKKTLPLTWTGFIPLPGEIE", "test": "crystal structure"}},
  "data": [
    {"binder": "ADI-42898 monovalent antibody-binding fragment (Fab) (Fab, V domains shown) VH: QVQLVESGGGVVQPGRSLRLSCAASGFTFSSYAMHWVRQAPGKGLEWVAVTWFDVSKKDYADSVKGRFTISRDNSKNTLYLQMNSLRAEDTAVYYCARNLIRYSGSYFPVHGMDVWGQGTTVTVSS VL: DIVMTQSPLSLPVTPGEPASISCRSSQSLLHTYGYNCLDWYLQRPGQSPQLLISLGSYRASGVPDRFSGSGSGTDFTLKISRVEAEDVGVYYCMQALHPFTFGGGTKVEIK", "values": [
      {"measurement": "binding result", "setting": "[1]", "value": "binds"}
    ]},
    {"binder": "ADI-42898 (monoclonal antibody, IgG) (antibody, V domains shown) VH: QVQLVESGGGVVQPGRSLRLSCAASGFTFSSYAMHWVRQAPGKGLEWVAVTWFDVSKKDYADSVKGRFTISRDNSKNTLYLQMNSLRAEDTAVYYCARNLIRYSGSYFPVHGMDVWGQGTTVTVSS VL: DIVMTQSPLSLPVTPGEPASISCRSSQSLLHTYGYNCLDWYLQRPGQSPQLLISLGSYRASGVPDRFSGSGSGTDFTLKISRVEAEDVGVYYCMQALHPFTFGGGTKVEIK", "values": [
      {"measurement": "binding result", "setting": "[1]", "value": "binds"}
    ]},
    {"binder": "ADI-42898 single-chain, variable domain fragment (scFv) (scFv, V domains shown) VH: QVQLVESGGGVVQPGRSLRLSCAASGFTFSSYAMHWVRQAPGKGLEWVAVTWFDVSKKDYADSVKGRFTISRDNSKNTLYLQMNSLRAEDTAVYYCARNLIRYSGSYFPVHGMDVWGQGTTVTVSS VL: DIVMTQSPLSLPVTPGEPASISCRSSQSLLHTYGYNCLDWYLQRPGQSPQLLISLGSYRASGVPDRFSGSGSGTDFTLKISRVEAEDVGVYYCMQALHPFTFGGGTKVEIK", "values": [
      {"measurement": "binding result", "setting": "[2]", "value": "binds"},
      {"measurement": "binding result", "setting": "[3]", "value": "binds"}
    ]}
  ]
}
